For 53 sequences, protein stability index results are on record in the supplement of paper PMC10567573.

± gives the standard deviation.

The data set is described as follows: protein stability index of a GFP-peptide fusion (GPS, HEK-293T) (PSI 1-6); higher = more stable. Particulars: c terminus: a fixed tail appended.
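Note: 24-mer peptide tiles fused after GFP, lentivirally expressed, FACS-sorted into six equal bins by GFP/DsRed ratio, decoded by Illumina sequencing, PSI is the read-weighted mean bin number.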

Consider SRLLGAAAGQRSRPSTYYELLGVH [DNAJC4], for which the protein stability index was 2.54 ± 0.57 (treatment: DMSO) and 2.52 ± 0.42 (treatment: MLN4924 1 uM, 8 h). In the case of SRMKFRGNGALSNISDLPFLAENS [LCOR], the protein stability index runs as follows: (treatment: DMSO) 3.32 ± 0.31; (treatment: MLN4924 1 uM, 8 h) 3.47 ± 0.27. On the same counts, the results for SRSENVLSRLSLMAMPNGFHEDGP [PSD2] are 3.73 ± 0.17 and 3.87 ± 0.27. The like results for SRSNSRSRSYSPRRSRGSPRYSPR [SRSF1] were, in that order, 5.28 ± 0.26 and 5.56 ± 0.065.

In the case of SRSPSVEGSLWAVGTESQGRDWRH [PXN], the protein stability index runs as follows: (treatment: DMSO) 4.04 ± 0.11; (treatment: MLN4924 1 uM, 8 h) 4.05 ± 0.23.

Take SRSTLECAYRTHLVAGIGFYQHLL [SMG5]: the protein stability index is, setting by setting: (treatment: DMSO) 2.9 ± 0.35; (treatment: MLN4924 1 uM, 8 h) 2.83 ± 0.57. The like results for SRSYSPRRSRGSPRYSPRHSRSRS [SRSF1] were, in that order, 5.39 ± 0.24 and 5.5 ± 0.25. On the same counts, the results for SRVLLSAIEGIPGSDYVNANYIDG [PTPRD] are 3.28 ± 0.26 and 3.73 ± 0.24. The like results for SSCHFARDSSFLISGGFDRTVAIW [WDR88] were, in that order, 2.42 ± 0.45 and 2.51 ± 0.55. With SSCIPKAFGNPKFALQGLPLNCAP [IRX6], the protein stability index is, setting by setting: (treatment: DMSO) 2.46 ± 0.25; (treatment: MLN4924 1 uM, 8 h) 2.75 ± 0.18. SSGSFCYCHPDSETDEDEEEGDEQ [GMCL1]: the protein stability index runs as follows: (treatment: DMSO) 5.52 ± 0.17; (treatment: MLN4924 1 uM, 8 h) 5.39 ± 0.14. On the same counts, the results for SSIVWRFVEDSFDPNINPTIGASF [RAB22A] are 2.31 ± 0.57 and 1.71 ± 0.47.

Consider SSQGVATPAITVSNSCPAELPNIK [TFE3], for which the protein stability index was 5 ± 0.11 (treatment: DMSO) and 4.96 ± 0.24 (treatment: MLN4924 1 uM, 8 h).

As to SSSVETGPSVSEPPGLPRVSAYVD [SPATS1], the protein stability index is, setting by setting: (treatment: DMSO) 4.77 ± 0.35; (treatment: MLN4924 1 uM, 8 h) 4.72 ± 0.21.

Regarding SSTQLCVLNDRFQRQKYLSLQQMQ [NANOGP8], the protein stability index (treatment: DMSO) worked out at 2.65 ± 0.14 and the protein stability index (treatment: MLN4924 1 uM, 8 h) worked out at 2.83 ± 0.1. The like results for SSVECYNLETNEWRYVSSLPQPLA [KLHL14] were, in that order, 2.6 ± 0.19 and 2.92 ± 0.24. STHELEKKELEENFEKLRLSLQDQ [MTUS2]: the protein stability index is, setting by setting: (treatment: DMSO) 5.43 ± 0.14; (treatment: MLN4924 1 uM, 8 h) 5.33 ± 0.12. Take STIGFKLPNHRAAKRLWKVCVEHH [EPB41L3]: the protein stability index runs as follows: (treatment: DMSO) 2.26 ± 0.27; (treatment: MLN4924 1 uM, 8 h) 2.58 ± 0.45. For STNGEKTKSPCESNNKKNDEMQEV [SPANXN3], the protein stability index runs as follows: (treatment: DMSO) 5.53 ± 0.16; (treatment: MLN4924 1 uM, 8 h) 5.41 ± 0.19. Take STVKTETISFGSVSPGGVKLEIST [EPB41L3]: the protein stability index is, setting by setting: (treatment: DMSO) 3.19 ± 0.58; (treatment: MLN4924 1 uM, 8 h) 3.06 ± 0.42. The like results for STWSDPSVNISLDNLLPGMQPSKP [CLINT1] were, in that order, 4.3 ± 0.12 and 4.25 ± 0.099.

For the sequence STYRKRTPVMEGYVEVKEGKTWKQ [LOXL2], the protein stability index (treatment: MLN4924 1 uM, 8 h) turned out to be 3.92 ± 0.2. For STYRPLPDPSVWSRRYTEMALPFF [MYORG], the protein stability index is, setting by setting: (treatment: DMSO) 2.36 ± 0.4; (treatment: MLN4924 1 uM, 8 h) 2.22 ± 0.13. Take SVEYGYRPGATAVPTPLTNVQILL [FCHO1]: the protein stability index reads like this: (treatment: DMSO) 2.06 ± 0.62; (treatment: MLN4924 1 uM, 8 h) 2.03 ± 0.48.

As for SVKSKIGELEDESLNRACHQQNKI [CEP70], the protein stability index runs as follows: (treatment: DMSO) 4.63 ± 0.41; (treatment: MLN4924 1 uM, 8 h) 4.7 ± 0.25.

SVPIDLQKVDQFDPFTVPTISFIC [PRIM1] came in with a protein stability index (treatment: DMSO) of 2.55 ± 0.44 and a protein stability index (treatment: MLN4924 1 uM, 8 h) of 2.48 ± 0.74. On the same counts, the results for SVVNVGCGPAEERVLLTGLHAVAD [YPEL3] are 3 ± 0.78 and 3.29 ± 0.7.

On to SVWQHIDCMGIDRQHIPDTYLCER [KMT2E], for which the protein stability index reads like this: (treatment: DMSO) 2.83 ± 0.2; (treatment: MLN4924 1 uM, 8 h) 2.81 ± 0.4. The like results for SWPRASPASGASSIKPEASQMPPP [SCNN1D] were, in that order, 4.62 ± 0.27 and 4.63 ± 0.38.

SWRWIMLILFAWGTLLFYIGGHLV [FUT8]: the protein stability index (treatment: DMSO) amounted to 2.42 ± 0.14 and the protein stability index (treatment: MLN4924 1 uM, 8 h) came to 2.27 ± 0.47. Consider SYVRSRKRLREEEAARLFKQIVSA [TRIB1], for which the protein stability index is 2.53 ± 0.38 (treatment: DMSO) and 3.09 ± 0.27 (treatment: MLN4924 1 uM, 8 h). For the sequence TAENERLQKKVEQLSRELSTLRNL [CEBPB], the protein stability index runs as follows: (treatment: DMSO) 3.69 ± 0.2; (treatment: MLN4924 1 uM, 8 h) 3.95 ± 0.2.

Turning to TAGKVLAHFYGVKLEGKVPMHKLF [ESRRA], the protein stability index by setting is: (treatment: DMSO) 2.41 ± 0.39; (treatment: MLN4924 1 uM, 8 h) 2.44 ± 0.79. For TAGQERFRALAPMYYRGSAAAIIV [RAB22A], the protein stability index came to 2.26 ± 0.091 (treatment: DMSO) and 2.25 ± 0.26 (treatment: MLN4924 1 uM, 8 h). For TALTSFCAKYTYPVCSALLDPVLQ [FANCE], the protein stability index (treatment: DMSO) came to 2.31 ± 0.37 and the protein stability index (treatment: MLN4924 1 uM, 8 h) was 2.23 ± 0.35. For TARRLLSQVRALDRFQVPTTEVNA [NFE2L1], the protein stability index (treatment: DMSO) is 3.02 ± 0.07. On to TCIDMDWKVLTWLRYTLWIPLYPL [HACD3], for which the protein stability index reads like this: (treatment: DMSO) 3.08 ± 0.28; (treatment: MLN4924 1 uM, 8 h) 3.29 ± 0.5.

TCLPLGVLMKGQHLHLETFKAVLD [PRAME]: the protein stability index is, setting by setting: (treatment: DMSO) 2.36 ± 0.25; (treatment: MLN4924 1 uM, 8 h) 2.32 ± 0.32. TDLPECEQSSARQKASLLIQQALT [TCF25]: the protein stability index (treatment: DMSO) was determined as 3.47 ± 0.36 and the protein stability index (treatment: MLN4924 1 uM, 8 h) is 3.66 ± 0.36. The like results for TEDVGVVCSDKRIPGFKFDNSLIN [LOXL2] were, in that order, 3.76 ± 0.28 and 3.75 ± 0.3. Turning to TEELIVQTKQVYDAVGMLGIEEVT [NLN], the protein stability index runs as follows: (treatment: DMSO) 4.23 ± 0.17; (treatment: MLN4924 1 uM, 8 h) 4.1 ± 0.45. For the sequence TEEQTRQERQGPAKPEVLSIQWPG [NECAB1], the protein stability index came out at 5.07 ± 0.058 (treatment: DMSO) and 5.14 ± 0.15 (treatment: MLN4924 1 uM, 8 h). TEIEEELKSLDKEISEAFTSTGFD [BCL2L13]: the protein stability index is 5.16 ± 0.27 (treatment: DMSO) and 5.26 ± 0.34 (treatment: MLN4924 1 uM, 8 h). The like results for TEPLTHWYQVRCLFQSPLFAKAGD [CARM1] were, in that order, 2.11 ± 0.36 and 2.15 ± 0.61. Regarding TEPPVALAPGPAPTRCLPGHKEEE [ESRRA], the protein stability index (treatment: DMSO) came out at 5.28 ± 0.12 and the protein stability index (treatment: MLN4924 1 uM, 8 h) turned out to be 5.36 ± 0.34. With TFASLIGPFGGFFASGFKRAFKIK [CDS1], the protein stability index was 2.66 ± 0.73 (treatment: DMSO) and 1.85 ± 0.26 (treatment: MLN4924 1 uM, 8 h). TGEDSAFQEPDSPLPPARSPTEPG [WEE1]: the protein stability index by setting is: (treatment: DMSO) 5.62 ± 0.15; (treatment: MLN4924 1 uM, 8 h) 5.44 ± 0.34.

As for TGGLGGERERQPCGDGNTETHRAP [SOAT2], the protein stability index is, setting by setting: (treatment: DMSO) 5.37 ± 0.15; (treatment: MLN4924 1 uM, 8 h) 5.31 ± 0.19. In the case of TGKGPSTHTQIDQQPPRLLIVHIA [M1AP], the protein stability index is 2.54 ± 0.34 (treatment: DMSO) and 2.44 ± 0.6 (treatment: MLN4924 1 uM, 8 h).

Regarding TIRLRPRQVLCEKCKSTLSPPEAS [PWWP2B], the protein stability index reads like this: (treatment: DMSO) 3.23 ± 0.3; (treatment: MLN4924 1 uM, 8 h) 3.75 ± 0.6.

In the case of TITLNCPRNSDMKNQGEENGFPDS [EDARADD], the protein stability index is, setting by setting: (treatment: DMSO) 4.11 ± 0.51; (treatment: MLN4924 1 uM, 8 h) 4.23 ± 0.19. On the same counts, the results for TLALLLNFLACLASFCVETNNGAG [SCAMP3] are 3.06 ± 0.2 and 2.88 ± 0.89. On to TLLSVLKREAGNLTKATAPDQKSS [SSNA1], for which the protein stability index by setting is: (treatment: DMSO) 2.69 ± 0.13; (treatment: MLN4924 1 uM, 8 h) 2.83 ± 0.3.
